Values of other authors as cited in article PMC8634938.
pKd: −log10 of the molar value.

Experiments:
[1] = target: IL-22R (Homo sapiens) (UniProt Q8N6P7)
[2] = target: IL-22BP (Homo sapiens) (UniProt Q969J5)
Chain of UniProt Q969J5 (Q969J5 22-263): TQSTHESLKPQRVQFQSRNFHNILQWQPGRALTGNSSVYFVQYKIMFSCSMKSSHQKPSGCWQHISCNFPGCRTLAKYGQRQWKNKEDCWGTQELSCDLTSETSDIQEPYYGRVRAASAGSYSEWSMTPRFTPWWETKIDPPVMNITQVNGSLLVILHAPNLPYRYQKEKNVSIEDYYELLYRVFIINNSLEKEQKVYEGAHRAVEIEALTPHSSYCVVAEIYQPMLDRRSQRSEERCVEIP

Chain of UniProt Q8N6P7 (Q8N6P7 16-228): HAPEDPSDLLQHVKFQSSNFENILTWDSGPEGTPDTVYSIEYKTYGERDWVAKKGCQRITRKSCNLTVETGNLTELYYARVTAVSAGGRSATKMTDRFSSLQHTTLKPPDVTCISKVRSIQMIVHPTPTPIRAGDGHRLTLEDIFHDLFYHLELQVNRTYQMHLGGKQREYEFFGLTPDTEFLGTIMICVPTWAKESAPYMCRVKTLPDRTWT

Q: Which results are given for IL-22 (from UniProt Q9GZX6)?
A: pKd [1]: 7.70; pKd [2]: 12.00
